A protein production outcome set (Wang et al. 2014)

Experiment: label from the status in PepcDB records

Protein production, failed:
MELWIGITFASAFLQNLRSTLQKHLKGMMGTTGATFVRFVFGMPFALAYLAFLHLGLGRPLPVPNMSFAGWATVGAMAQIAATFLLVHLFSFRNFAVGTAYSRTEPAQAALFALIFIGESITGGTLAAIAISVAGVMLISVARTQVTPASFLTSIFSRTAGIGLASGAFFGLSSVAYRSASLALAPSLPAPDAMMQAGFTLVVVIVMQTVSMFLWIIWREREELPRIAKVWKPSLAVGFVGATASFGWFTAMTLQQAAVVKALAQVEMLFAFASTVLFFKEKINRLELSGCMLIVVGVLSLLAFG
MELYQDNKLNNVGNIEINQCDGVIKKENDLHVSVIKPITKKIIHCDNMENKMKINAFYKPVELVEEIKNYVHKGDTHLVKLYEDFKNKKDKKVKMKNEYMTKLKNLHILNMINNKKKENECGVVNKNNIVHFNLFNENEDVTPKIETVYIPKLEKNIEVVSHLKENVNVDYTYMVPKPVVIPIEVPILKFRDHFKIIPIRKKIIPVIKYTDNIIYVDCCVEKPYIVYENVIIPVPCDIPIEQKKYIDKVPPI
MEMEERKLKILQAIINDYINNGEPVGSRTIAKKYNLGISSATIRNEMADLEEMGYIEQLHTSSGRKPSDKGYRLYVDRLMEIPSMSVEEEMLIKAKIIDSALYEIDKLVKQAMSLVSEMTKLTCVVKSLSARKSYIKSISLINIEPNMILCVFITDSGMIKNSIIRVKSNIENSSLERIANILNSKLKGLTIEQINLEVINNIKKDLREYGHIFDCIMPNLYDILREADSTEVYKEGTMNIFNYPEFKDIEKAKEFLSVIDDRRILDTLFNASGGVTVNIGNENSIKEARDFSVVSSVYKYNGRPLGTIGIIGPTRIPYSKVIKVIMEVVDQINNNLDKMNNS
MEMIGGDDTDTEMYGALVTAQSLRLRHLHHCRENQCTSVLVKYIQAPVHLVWSLVRRFDQPQKYKPFISRCTVNGDPEIGCLREVNVKSGLPATTSTERLEQLDDEEHILGINIIGGDHRLKNYSSILTVHPEMIDGRSGTMVMESFVVDVPQGNTKDDTCYFVESLIKCNLKSLACVSERLAAQDITNSIATFCNASNGYREKNHTETNL
MEMIRGRGIPNGVVQVPNLSANNLLQKFFIASNHFCQRDSEHGENQQEAKKREDEAEEDEKDVELTLGLSLNGQFGTDPRSRKRRHFELGRSSSIPEGFVFDEQRSGGGNGGDMRRIVGRGGSDMFQLDRTRSLPVVTEMDIEKERKVSEKTRAFMESPVTNRGAYLTKDKNRGQAVETEKPRAFLEFKIPPTKEGKKEKDRLVVTGPVNGKGKNGNTAKKQKNNVENSGMEKARNILEDMPCVSTRDVGADGKRVEGFLYWYGGNKEEVKIVCVCHGSFLSPAEFVRHGGGTVSDDDGGDVMINPLRHIVVKLPSSSI
MEMVNAEAKQSVPLLTPYKMGRFNLSHRVVLAPLTRQKSYGSVPQPHAILYYSQRTSPGGFLIAEATGVSDTAQGYPDTPGIWTKEHVEAWKPIVDAVHAKGGIFFCQIWHVGRVSNRGFQPRRQAPISCTGKPIMPQMRANGIDEARFTPPRRLSIEEIPGIVNDFRLAARNAMEAGFDGVEIHGAHGYLIDQFMKDKVNDRTDEYGGSLQNRCKFALEVVDAVAKEIGPDRVGIRLSPFADYMESGDTNPEALGLYMVESLNKYGILYCHMIEPRMKTVGEIAACSHTLMPMREAFKGTFISAGGFTREDGNEAVAKGRTDLVAYGRWFLANPDLPKRFQLDAPLNKYNRSTFYTSDPVVGYTDYPSLESTA
MEMYFKRMKDEWTGLVEQADPPIRAKAAEIAVAHAHYLSIEFYRIVRIDPHAEEFLSNEQVERQLKSAMERWIINVLSAQVDDVERLIQIQHTVAEVHARIGIPVEIVEMGFRVLKKILYPVIFSSDYSAAEKLQVYHFSINSIDIAMEVMTRAFTFSDSSASKEDENYRIFSLLENAEEEKERQIASILSWEIDIIYKILLDSDLGSSLPLSQADFGLWFNHKGRHYFSGIAEVGHISRLIQDFDGIFNQTMRNTRNLNNRSLRVKFLLQIRNTVSQIITLLRELFEEVSRHEVGMDVLTKLLNRRFLPTIFKREIAHANRTGTPLSVLIIDVDKFKEINDTWGHNTGDEILRKVSQAFYDNVRSSDYVFRYGGDEFIIVLTEASENETLRTAERIRSRVEKTKLKAANGEDIALSLSIGAAMFNGHPDYERLIQIADEALYIAKRRGRNRVELWKASL
